According to patent US20110034385A1, “Compositions Useful for the Treatment of Diabetes and Other Chronic Disorder” (NATIONAL INSTITUTE OF IMMUNOLOGY, priority 2008, published 2011):

Legend:
[1] = tested on: STZ-induced diabetic rats; test: Blood glucose control in streptozotocin-induced diabetic rats; assay type: in vivo, rat
Experimental: Nine weeks old Male Wistar rats (Rattus norvegicus albinus, Rodentia mammalia) weighing 210±10 g were used. Rats were housed in commercially available polypropylene cages and maintained under controlled temperature conditions on a 12 h light-dark cycle and allowed to access food and water ad libitum.
Male Wistar Rats weighing 250-300 g were divided into four groups and blood glucose estimation was done using Roche Accu Check glucose strips. Rats were kept on fasting for 48 hours. 50 mg/kg b.wt of Streptozotocin prepared freshly in citrate buffer (pH 4.5) was administered intraperitoneally to 10-20 rats. Food was provided immediately and blood glucose levels were checked after three days. The animals were grouped according to their blood glucose level (group I: 250-350 mg/dl, group II: 350-450 mg/dl and group III: >450 mg/dL).
A group of 5 normal rats injected 100 μl of PBS, served as the non-diabetic control. Body weight and blood glucose levels, both pre-prandial after 8-10 hr fasting and post-prandial were checked initially daily and then with decreasing frequency.

STZ treated rats = test: Intraperitoneal glucose tolerance test (IPGTT); assay type: in vivo, rat
Experimental: The STZ treated (n=12) and normal rats (n=4) were kept on fasting for 12 hrs. Blood glucose levels were monitored as described above. For glucose tolerance test was done. […] Blood glucose levels were monitored at 0, 30, 90, 150, 270 and 330 min after treatment. Serum was isolated for various time points and a graph was plotted between blood glucose level and time. FIG. 12 provides blood glucose profile of Intraperitoneal Glucose Tolerance Test (IPGTT).

[2] = Serum insulin quantification by ELISA; conditions: in 30 min
Experimental: Serum was isolated from the blood samples collected and stored at −20° C. till further analysis.

Male wistar rats = test: Hyperglycemic clamp after treatment with SIA II; assay type: in vivo, rat; conditions: one week, one month and three month
Experimental: Male wistar rats were anesthetized (Isoflurane 2%) and a carotid and jugular catheter installed to allow blood withdrawal and glucose injections (20% glucose solution) to clamp blood glucose level at 600 mg/dL. Following a 12 hours fasting period, glucose was infused in all groups to make them hyperglycemic. This was followed by blood withdrawal at indicated time intervals, for blood glucose measurements and the rate of glucose infusion to retain them hyperglycemic were calculated. This procedure was repeated after one and three months of SIA II administration (FIG. 16 a-c).

[3] = tested on: insulin signaling cascade (PI3K, Akt, GSK3β, ERK1/2) in rat adipocytes; test: Western blot of insulin signaling cascade in cultured adipocytes; assay type: cell-based; conditions: compared to control
Experimental: Rat adipocytes were isolated and cultured according to the method described by Björntorp et al. (Björntorp, P., Karlsson, M., Pettersson, P. & Sypniewska, G. Differentiation and function of rat adipocyte precursor cells in primary culture. J. Lipid Res. 21, 714-723 (1987)). Male Wistar rats fed freely were sacrificed and epididymal fat tissue was dissected and collected in reagent A (HBSS, 100 U/ml penicillin, 100 μg/ml streptomycin and […] gentamycin). The tissue was washed properly in HBSS. Following this the tissue was cut and minced finely and transferred to a falcon, centrifuged at 200 g for 2 min. The layer of transparent oil was removed and the adipocyte cell layer (thick and dense) was added to three times the volume of reagent B (reagent A containing 0.1% BSA and 1 mg/ml Collagenase) in a flask. The flask was incubated at 37° C. for 60 min with continuous slow shaking. The reaction was stopped by addition of DMEM complete media (with HEPES 15 mM, glc, 0.1% BSA, 50 nM adenosine and 1% fetal bovine serum) three times the volume and incubated at room temperature for 5 min. […]
After incubation, the cells were collected in a falcon tube and centrifuged at 200 g for 10 min. […] Adipocytes treated with (a) PBS, insulin, SIA-II, insulin released from SIA-II, (b) serum as indicated, and analysed for insulin signaling.

[4] = tested on: STZ-induced diabetic rats; test: Clinical parameters for the evaluation of toxicity of SIA II; assay type: in vivo, rat; conditions: end of three month study
From the text: Serum isolated from blood samples collected at the end of the three month study and subjected to various tests indicated in the Table. Results are mean±s.d. of three different experiments having n=4 animals in each group.

MCF 7 cells = test: MTT cell proliferation assay; assay type: cell-based; conditions: 3 days after treatment
Experimental: Cells were plated in 24-well plates with 10,000 cells/well in regular DMEM media containing 10% FBS. All treatments were done in triplicates. Growth was measured 3 days after treatment. Growth was assayed by the MTT assay. A total of 50 μl of 5 mg/ml MTT solution in PBS was added to each well. After incubation for 4 h at 37° C., formazan crystals were lysed with 500 μl of solubilization solution (20% SDS, 50% DMSO). Absorbance was measured with a plate reader at 570 nm using a 670-nm differential filter.

[5] = tested on: fat-fed/streptozotocin-diabetic rats; test: Type II diabetes model, fat-fed/streptozotocin-diabetic rats; assay type: in vivo, rat
Experimental: Male Wistar rats, 7 weeks of age, and weighing approximately 200 g, were used for all studies. […] After 2 weeks on either diet, animals (with the exception of non-injected controls) after an overnight fast were injected with STZ (50 mg/kg) into the tail vein via a temporary indwelling 24-gauge catheter. Animals had free access to food and water after the STZ injection, and both STZ-injected and non-injected animals were continued on their original diets (chow or fat) for the duration of the study.

[6] = tested on: STZ-induced diabetic rats; test: Clinical parameters for the evaluation of toxicity of SIA II; assay type: in vivo, rat
[7] = insulin: single dose of 4 IU/kg daily, SIA: single injection 200 μg

Insulin: free, non-supramolecularly organized insulin; bovine insulin 4 U/kg intraperitoneally
blood glucose levels ([1]; insulin intraperitoneally everyday): 300 ± 100 mg/dL | fasting blood glucose [1, 7]: 300 to 400 mg/dL | non-fasting blood glucose [1, 7]: 350 to 450 mg/dL | duration of action ([1]; standard insulin injection): 6 to 10 h | time for elevated blood glucose to return to pre challenged levels (STZ treated rats; after glucose infusion 3 g/kg IP): ≤ 1.5 h | onset of effect in IPGTT (STZ treated rats; severe hyperglycemia): ≤ 30 min | serum bovine insulin in IPGTT [2]: ~0.9 ng/mL | rate of glucose infused for maintaining hyperglycemic state (Male wistar rats): decreases over time | activation of ERK 1/2 [3]: significant activation | phosphorylation of GSK3β [3]: increased several fold | Alkaline Phosphatase ([4]; Single daily Insulin Injection): 777.8 ± 89.4 U/L | Bilirubin (Direct) ([4]; Single daily Insulin Injection): 0.36 ± 0.08 mg/dL | Bilirubin (Total) ([4]; Single daily Insulin Injection): 0.40 ± 0.08 mg/dL | Chloride ([4]; Single daily Insulin Injection): 165 ± 23 mEq/L | Phosphorous ([4]; Single daily Insulin Injection): 6.5 ± 1.3 mEq/L | SGOT ([4]; Single daily Insulin Injection): 355 ± 83 U/L | SGPT ([4]; Single daily Insulin Injection): 86 ± 36 U/L | Serum A/G ratio ([4]; Single daily Insulin Injection): 0.595 | Serum Albumin ([4]; Single daily Insulin Injection): 2.5 ± 0.21 g/dL | Serum Creatinine ([4]; Single daily Insulin Injection): 1.01 ± 0.30 mg/dL | Serum Globulin ([4]; Single daily Insulin Injection): 4.2 ± 0.18 g/dL | Serum total proteins ([4]; Single daily Insulin Injection): 6.70 ± 0.21 g/dL | Sodium ([4]; Single daily Insulin Injection): 200 ± 26 mEq/L | Urea ([4]; Single daily Insulin Injection): 58.3 ± 9.2 mg/dL | Uric Acid ([4]; Single daily Insulin Injection): 3.0 ± 0.81 | Adipose Tissue ([4]; Twice daily Insulin Injection): Decreased | Alkaline Phosphatase ([4]; Twice daily Insulin Injection): 489 ± 65 U/L | Bilirubin (Direct) ([4]; Twice daily Insulin Injection): 0.25 ± 0.06 mg/dL | Bilirubin (Total) ([4]; Twice daily Insulin Injection): 0.35 ± 0.1 mg/dL | Chloride ([4]; Twice daily Insulin Injection): 119 ± 26 mEq/L | Phosphorous ([4]; Twice daily Insulin Injection): 6.2 ± 0.95 mEq/L | SGOT ([4]; Twice daily Insulin Injection): 300 ± 56 U/L | SGPT ([4]; Twice daily Insulin Injection): 85 ± 15 U/L | Serum A/G ratio ([4]; Twice daily Insulin Injection): 0.955 | Serum Albumin ([4]; Twice daily Insulin Injection): 3.2 ± 0.19 g/dL | Serum Creatinine ([4]; Twice daily Insulin Injection): 0.88 ± 0.21 mg/dL | Serum Globulin ([4]; Twice daily Insulin Injection): 3.35 ± 0.15 g/dL | Serum total proteins ([4]; Twice daily Insulin Injection): 5.55 ± 0.25 g/dL | Sodium ([4]; Twice daily Insulin Injection): 198 ± 45.5 mEq/L | Urea ([4]; Twice daily Insulin Injection): 60.1 ± 12.36 mg/dL | Uric Acid ([4]; Twice daily Insulin Injection): 3.1 ± 0.56 | proliferation of MCF 7 cells (MCF 7 cells): does not cause proliferation of cells | B W ([5]; 1 week): 261 | BGL ([5]; 1 week): 420 mg/dL | FFA ([5]; 1 week): 1.9 ± 0.08 mmol/L | Rat Insulin ([5]; 1 week): 37.09 ± 4.7 μU/ml | TG ([5]; 1 week): 0.77 ± 0.05 mmol/L | B W ([5]; 2 week): 263 | BGL ([5]; 2 week): 401 mg/dL | FFA ([5]; 2 week): 2.1 ± 0.08 mmol/L | Rat Insulin ([5]; 2 week): 37.09 ± 4.7 μU/ml | TG ([5]; 2 week): 0.75 ± 0.05 mmol/L | B W ([5]; 3 week): 269 | BGL ([5]; 3 week): 390 mg/dL | FFA ([5]; 3 week): 1.8 ± 0.08 mmol/L | Rat Insulin ([5]; 3 week): 37.09 ± 4.7 μU/ml | TG ([5]; 3 week): 0.73 ± 0.05 mmol/L | BGL ([5]; 4 week): 396 mg/dL | FFA ([5]; 4 week): 2.1 ± 0.08 mmol/L | Rat Insulin ([5]; 4 week): 37.09 ± 4.7 μU/ml | TG ([5]; 4 week): 0.76 ± 0.05 mmol/L | increase of TAGs and FFA levels in serum ([5]; serum): up to 1.5 fold | Adipose Tissue ([6]; Single daily Insulin Injection, end of three month study): Decreased | cataract formation ([6]; diabetic rats): Development of cataract
